According to patent US20150202161A1, “PROCESS FOR MANUFACTURING DRUG DELIVERY FORMULATIONS” (O-RAY PHARMA, INC., priority 2012, published 2015):

Experiment: In vitro release (dissolution) of Infliximab from packed silicone cup and of lyophilized powder
Format: physicochemical
Conditions: release into 600 μl water with stirring at room temperature (23° C.); UV absorption at 280 nm
Procedure: A solid drug pellet (FIG. 4, 402.) was created by mixing 75% infliximab with 25% hydroxy propyl methyl cellulose (HPMC). This solid pellet was packed into a silicone cup (FIG. 1, 101.). The drug can only release from one end of the silicone and this end is subsequently coated with a controlled release polymer formulation of 5 μl of 10% polylactic acid (FIG. 1, 107.) to control its release. Dissolution studies were performed with lyophilized infliximab powder and infliximab packed extended release formulations. For each sample, release into 600 μl water was carried out with stirring at room temperature (23° C.). Aliquots were removed at timed intervals and analyzed with UV absorption spectroscopy at 280 nm using a Spectramax Plus384 96 well plate reader.

Substance: Lyophilized infliximab powder: TNF-α inhibitor infliximab as unformulated lyophilized powder, comparator in dissolution study
- release upon addition to solvent: releases almost immediately
